From US20210347889A1 (Merck Sharp & Dohme, published 2021)

Target: T1, membrane LAG3 (membrane-bound LAG3 expressed on immune cells) (human, UniProt P18627 23-525)
T1 sequence: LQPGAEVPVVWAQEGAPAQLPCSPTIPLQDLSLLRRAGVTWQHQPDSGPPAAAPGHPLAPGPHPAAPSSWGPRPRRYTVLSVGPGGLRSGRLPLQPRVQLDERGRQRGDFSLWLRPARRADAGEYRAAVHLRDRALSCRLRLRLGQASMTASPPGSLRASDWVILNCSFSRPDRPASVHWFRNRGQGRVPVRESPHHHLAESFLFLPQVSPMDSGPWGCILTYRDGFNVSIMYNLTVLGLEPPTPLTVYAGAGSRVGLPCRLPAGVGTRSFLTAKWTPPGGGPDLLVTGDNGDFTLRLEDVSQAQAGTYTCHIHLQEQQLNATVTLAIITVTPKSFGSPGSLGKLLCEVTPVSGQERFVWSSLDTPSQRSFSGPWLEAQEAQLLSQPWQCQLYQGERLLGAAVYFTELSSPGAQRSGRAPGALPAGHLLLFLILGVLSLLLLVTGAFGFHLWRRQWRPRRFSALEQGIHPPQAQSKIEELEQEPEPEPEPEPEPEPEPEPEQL
Test: statement in Example 2 (rationale for sLAG3 as target engagement marker); no assay described

binding result: binds
B1: anti-LAG3 antibody Ab6 (antibody, human IgG4 S228P, kappa, V domains shown)
VH: QMQLVQSGPEVKKPGTSVKVSCKASGYTFTDYNVDWVRQARGQRLEWIGDINPNDGGTIYAQKFQERVTITVDKSTSTAYMELSSLRSEDTAVYYCARNYRWFGAMDHWGQGTTVTVSS
VL: DIVMTQTPLSLSVTPGQPASISCKASQSLDYEGDSDMNWYLQKPGQPPQLLIYGASNLESGVPDRFSGSGSGTDFTLKISRVEAEDVGVYYCQQSTEDPRTFGGGTKVEIKR
notes: The claims say two heavy and two light chains
